Data taken from patent US20190142971A1, “FORMULATION AND DELIVERY OF MODIFIED NUCLEOSIDE, NUCLEOTIDE, AND NUCLEIC ACID COMPOSITIONS” (ModernaTX, Inc., priority 2013, published 2019).

Experiments:
Assay type in all cases: in vivo
Sprague-Dawley rats = experiment: Example 34: EPO mRNA in buffer IM in rats, serum EPO (Table 59); conditions: 13 hours post injection
rats = experiment: Example 17: LNP IV, IM, SC in rats, serum EPO/G-CSF ELISA (Table 34); conditions: for EPO / G-CSF Serum Concentration: LNP 0.05 mg/kg
Method: (§1) Formulations, listed in Table 33, were characterized by particle size, zeta potential, and encapsulation.
LNP formulations, shown in Table 33 (above), were administered to rats (n=5) intravenously (IV), intramuscularly (IM) or subcutaneously (SC) at a single modified mRNA dose of 0.05 mg/kg. A control group of rats (n=4) was untreated. […] The rats administered EPO modified mRNA intravenously were also bled at 7 days.

[1] = test system: non-human primates (cynomolgus monkey); experiment: Example 21: LNP IV in non-human primates, serum EPO/G-CSF ELISA (Table 37); conditions: for protein expression detectable out to: NHP IV
Method: as §1
LNP formulations, shown in Table 33 (above), were administered to non-human primates (NHP) (cynomolgus monkey) (n=2) as a bolus intravenous injection (IV) over approximately 30 seconds using a hypodermic needle, which may be attached to a syringe/abbocath or butterfly if needed. The NHP were administered a single modified mRNA IV dose of 0.05 mg/kg of EPO or G-CSF or 0.005 mg/kg of EPO in a dose volume of 0.5 mL/kg. The NHPs were bled 5-6 days before dosing with the modified mRNA LNP formulations to determine protein expression in the serum and a baseline complete blood count. After administration with the modified mRNA formulation the NHP were bled at 8, 24, 48 and 72 hours to determined protein expression. At 24 and 72 hours after administration the complete blood count of the NHP was also determined. Protein expression of G-CSF and EPO was determined by ELISA. Urine from the NHPs was collected over the course of the entire experiment and analyzed to evaluate clinical safety. Samples were collected from the NHPs after they were administered with G-CSF or EPO modified mRNA formulations to determine protein expression using ELISA. Clinical chemistry, hematology, urinalysis and cytokines of the non-human primates were also analyzed.

B1: EPO: modified mRNA encoding human erythropoietin, SEQ ID NO: 7, Cap1, fully modified with 5-methylcytosine and pseudouridine; LNP NPA-060-1 in Examples 17-22 (nucleic acid)
chain: GGGAAAUAAGAGAGAAAAGAAGAGUAAGAAGAAAUAUAAGAGCCACCAUGGGAGUGCACGAGUGUCCCGCGUGGUUGUGGUUGCUGCUGUCGCUCUUGAGCCUCCCACUGGGACUGCCUGUGCUGGGGGCACCACCCAGAUUGAUCUGCGACUCACGGGUACUUGAGAGGUACCUUCUUGAAGCCAAAGAAGCCGAAAACAUCACAACCGGAUGCGCCGAGCACUGCUCCCUCAAUGAGAACAUUACUGUACCGGAUACAAAGGUCAAUUUCUAUGCAUGGAAGAGAAUGGAAGUAGGACAGCAGGCCGUCGAAGUGUGGCAGGGGCUCGCGCUUUUGUCGGAGGCGGUGUUGCGGGGUCAGGCCCUCCUCGUCAACUCAUCACAGCCGUGGGAGCCCCUCCAACUUCAUGUCGAUAAAGCGGUGUCGGGGCUCCGCAGCUUGACGACGUUGCUUCGGGCUCUGGGCGCACAAAAGGAGGCUAUUUCGCCGCCUGACGCGGCCUCCGCGGCACCCCUCCGAACGAUCACCGCGGACACGUUUAGGAAGCUUUUUAGAGUGUACAGCAAUUUCCUCCGCGGAAAGCUGAAAUUGUAUACUGGUGAAGCGUGUAGGACAGGGGAUCGCUGAUAAGCUGCCUUCUGCGGGGCUUGCCUUCUGGCCAUGCCCUUCUUCUCUCCCUUGCACCUGUACCUCUUGGUCUUUGAAUAAAGCCUGAGUAGGAAG
modifications: Cap1, 5-methylcytosine, pseudouridine
With B1 the “human EPO in serum, Avg.” value (Sprague-Dawley rats; dose 1 μg) was 28.7 pg/mL, the “human EPO in serum, Geometric-mean” value (Sprague-Dawley rats; dose 1 μg) was 25.4 pg/mL and the “human EPO in serum, Avg.” value (Sprague-Dawley rats; dose 10 μg) was 46.3 pg/mL. For the same molecule, the “human EPO in serum, Geometric-mean” value (Sprague-Dawley rats; dose 10 μg) was 31.2 pg/mL, the “human EPO in serum, Avg.” value (Sprague-Dawley rats; dose 50 μg) was 101.5 pg/mL and the “human EPO in serum, Geometric-mean” value (Sprague-Dawley rats; dose 50 μg) was 85.4 pg/mL. The “human EPO in serum, Avg.” value (Sprague-Dawley rats; dose 100 μg) was 79.4 pg/mL, the “human EPO in serum, Geometric-mean” value (Sprague-Dawley rats; dose 100 μg) was 66.9 pg/mL and the “human EPO in serum, Avg.” value (Sprague-Dawley rats; dose 150 μg) was 67.7 pg/mL. For the same molecule, the “human EPO in serum, Geometric-mean” value (Sprague-Dawley rats; dose 150 μg) was 67.1 pg/mL, the “protein expression detectable out to” value (rats; IV) was 5 days and the “EPO / G-CSF Serum Concentration” value (rats; IM, 2 hours) was 1395.4 pg/mL. For the same molecule, the “EPO / G-CSF Serum Concentration” value (rats; IM, 8 hours) was 8974.6 pg/mL, the “EPO / G-CSF Serum Concentration” value (rats; IM, 24 hours) was 4678.3 pg/mL and the “EPO / G-CSF Serum Concentration” value (rats; IV, 2 hours) was 36,981.0 pg/ml. The “EPO / G-CSF Serum Concentration” value (rats; IV, 8 hours) was 62,053.3 pg/ml, the “EPO / G-CSF Serum Concentration” value (rats; IV, 24 hours) was 42,077.0 pg/ml and the “EPO / G-CSF Serum Concentration” value (rats; IV, 48 hours) was 5,561.5 pg/ml. For the same molecule, the “EPO / G-CSF Serum Concentration” value (rats; IV, 5 days) was 0.0 pg/mL, the “EPO / G-CSF Serum Concentration” value (rats; IV, 7 days) was 0.0 pg/mL and the “EPO / G-CSF Serum Concentration” value (rats; SC, 2 hours) was 386.2 pg/mL. The “EPO / G-CSF Serum Concentration” value (rats; SC, 8 hours) was 985.6 pg/mL, the “EPO / G-CSF Serum Concentration” value (rats; SC, 24 hours) was 544.2 pg/mL and the “protein expression detectable to” value (rats; subcutaneous and intramuscular) was “at least 24 hours”. For the same molecule, the “Average Serum Concentration” value ([1]; 0.005 mg/kg IV, 8 hours) was 387 pg/mL, the “Female NHP Serum Concentration” value ([1]; 0.005 mg/kg IV, 8 hours) was 523 pg/mL and the “Male NHP Serum Concentration” value ([1]; 0.005 mg/kg IV, 8 hours) was 250 pg/mL. The “Average Serum Concentration” value ([1]; 0.005 mg/kg IV, 24 hours) was 208 pg/mL, the “Female NHP Serum Concentration” value ([1]; 0.005 mg/kg IV, 24 hours) was 302 pg/mL and the “Male NHP Serum Concentration” value ([1]; 0.005 mg/kg IV, 24 hours) was 113 pg/mL. For the same molecule, the “Average Serum Concentration” value ([1]; 0.005 mg/kg IV, 48 hours) was <7.8 pg/mL, the “Female NHP Serum Concentration” value ([1]; 0.005 mg/kg IV, 48 hours) was <7.8 pg/mL and the “Male NHP Serum Concentration” value ([1]; 0.005 mg/kg IV, 48 hours) was <7.8 pg/mL. The “Average Serum Concentration” value ([1]; 0.005 mg/kg IV, 72 hours) was 0 pg/mL, the “Female NHP Serum Concentration” value ([1]; 0.005 mg/kg IV, 72 hours) was 0 pg/mL and the “Male NHP Serum Concentration” value ([1]; 0.005 mg/kg IV, 72 hours) was 0 pg/mL. For the same molecule, the “Average Serum Concentration” value ([1]; 0.005 mg/kg IV, Pre-bleed) was 0 pg/mL, the “Female NHP Serum Concentration” value ([1]; 0.005 mg/kg IV, Pre-bleed) was 0 pg/mL and the “Male NHP Serum Concentration” value ([1]; 0.005 mg/kg IV, Pre-bleed) was 0 pg/mL. For the same molecule, the “Average Serum Concentration” value ([1]; 0.05 mg/kg IV, 8 hours) was 13,465 pg/ml, the “Female NHP Serum Concentration” value ([1]; 0.05 mg/kg IV, 8 hours) was 19,858 pg/ml and the “Male NHP Serum Concentration” value ([1]; 0.05 mg/kg IV, 8 hours) was 7,072 pg/ml. The “Average Serum Concentration” value ([1]; 0.05 mg/kg IV, 24 hours) was 11,546 pg/ml, the “Female NHP Serum Concentration” value ([1]; 0.05 mg/kg IV, 24 hours) was 18,178 pg/ml and the “Male NHP Serum Concentration” value ([1]; 0.05 mg/kg IV, 24 hours) was 4,913 pg/ml. The “Average Serum Concentration” value ([1]; 0.05 mg/kg IV, 48 hours) was 2,895 pg/ml, the “Female NHP Serum Concentration” value ([1]; 0.05 mg/kg IV, 48 hours) was 5,291 pg/ml and the “Male NHP Serum Concentration” value ([1]; 0.05 mg/kg IV, 48 hours) was 498 pg/mL. The “Average Serum Concentration” value ([1]; 0.05 mg/kg IV, 72 hours) was 402 pg/mL, the “Female NHP Serum Concentration” value ([1]; 0.05 mg/kg IV, 72 hours) was 744 pg/mL and the “Male NHP Serum Concentration” value ([1]; 0.05 mg/kg IV, 72 hours) was 60 pg/mL. The “Average Serum Concentration” value ([1]; 0.05 mg/kg IV, Pre-bleed) was 0 pg/mL, the “Female NHP Serum Concentration” value ([1]; 0.05 mg/kg IV, Pre-bleed) was 0 pg/mL and the “Male NHP Serum Concentration” value ([1]; 0.05 mg/kg IV, Pre-bleed) was 0 pg/mL. The “protein expression detectable out to” value ([1]; 0.005 mg/kg) was 48 h and the “protein expression detectable out to” value ([1]; 0.05 mg/kg) was 72 h.
